Earlier results as cited in patent US20170290929A1, “GRP78 TARGETED CONJUGATES” (University of Iowa Research Foundation, priority 2014, published 2017).
Ends that are not written are not given here.

Biological target: GRP78 (Homo sapiens, UniProt P11021)
Conditions: cell free binding assays

Chain of GRP78 (P11021 19-654, species assumed): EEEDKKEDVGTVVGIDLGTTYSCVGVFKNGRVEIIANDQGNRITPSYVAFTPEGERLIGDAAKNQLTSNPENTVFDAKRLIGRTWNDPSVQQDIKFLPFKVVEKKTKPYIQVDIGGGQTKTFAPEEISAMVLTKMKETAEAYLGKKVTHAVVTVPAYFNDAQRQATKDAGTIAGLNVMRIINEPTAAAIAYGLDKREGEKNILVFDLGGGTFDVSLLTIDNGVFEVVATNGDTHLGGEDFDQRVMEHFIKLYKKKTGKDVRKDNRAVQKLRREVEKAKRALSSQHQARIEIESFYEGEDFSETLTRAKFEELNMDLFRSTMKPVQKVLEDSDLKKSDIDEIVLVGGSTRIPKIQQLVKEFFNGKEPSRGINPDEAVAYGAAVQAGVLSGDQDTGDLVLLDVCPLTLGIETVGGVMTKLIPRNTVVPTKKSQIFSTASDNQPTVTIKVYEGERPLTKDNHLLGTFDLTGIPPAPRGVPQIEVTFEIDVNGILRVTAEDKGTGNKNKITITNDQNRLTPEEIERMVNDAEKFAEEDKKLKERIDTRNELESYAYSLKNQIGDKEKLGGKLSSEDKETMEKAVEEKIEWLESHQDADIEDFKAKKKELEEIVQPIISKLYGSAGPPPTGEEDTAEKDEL

- binding with GRP78: shown to bind with GRP78
Substance: PEP42: 13-mer cyclic peptide, amino acid sequence CTVALPGGYVRKC (SEQ ID NO:1) (also: cyclic)
